The subject of one assay is harmonin supramodule. The settings on record: for protocadherin-15; ref Michel et al., 2020; cited from earlier work. The source says: These folded extensions modulate the affinity of associated PDZ domains for their partners and promote the formation of domain assembly. In harmonin, this extension folds as a hairpin followed by a short α-helix mediating the formation of a heterotopic supramodule between the first PDZ and the upstream Harmonin Homology Domain (HHD) and forming direct contacts with residues upstream of the partner’s PBM ([Yan et al., 2010]) (PDB e ...

The subject of a further assay is ADGRV1 β subunit. The experiment in a line: Pull-down of ADGRV1 β subunit by full-length PDZD7-GFP from HeLa cell lysates. Type of assay: binding, murine. The settings on record: PDZD7-GFP bait, anti-GFP beads, 4°C 1 h, western blot, vs no bait. The protocol: HeLa cells were maintained in Dulbecco’s modified Eagle’s medium (DMEM) containing 10% fetal calf serum (FCS). PDZD7 constructs correspond to the full-length murine sequence in fusion with a N-terminal strep tag and a C-terminal GFP, wild-type or carrying G103R/G228R variants, cloned in a PMT3 vector. The ADGRV1 construct corresponds to the murine β subunit of the receptor (5884-6298) cloned in a pRK5 vector. Plasmids were transfected in separate HeLa cultures using 25 μg (PDZD7) and 10 μg (ADGRV1) of DNA per 10 cm dish using TurboFect™ Transfection Reagent (ThermoFisher Scientific) at 3 μl per μg of transfected DNA. Mixes were prepared in volumes of 1 ml/plate (in DMEM), vortexed and incubated up to 30 min at room temperature, cell media were renewed before transfection. After drop by drop addition of the transfection mix, cells were maintained at 37°C for 14 h for protein expression. Cells were dissociated using Gibco™ Trypsine-EDTA (0,05%), subsequently inactivated by addition of DMEM containing 10% FCS. Cells were counted, pelleted and resuspended at similar concentrations in PBS Tween 0.01%, Dodécyl-β-D-maltoside (DDM) 0.1% containing anti-proteases (buffer). Benzonase (Sigma) was added before sonication of the cells (40 mA amplitude, 10 pulses of 12 s with 18 s intervals, in ice). An identical volume of ADGRV1 β transfected cell lysate was mixed to either PDZD7 WT, G103R or G228R transfected cell lysates. PDZ proteins have different expression levels, meaning that different amounts of sample are needed to saturate the dynabeads with the PDZ proteins. Pull down experiments have been performed several times allowing us to estimate the yield of expression of each PDZ construct for a given amount of cells. […] Target proteins were detected using mouse α-GFP (LivingColors™ JL-8, Takara) and rabbit α-ADGRV1 (custom, raised against the cytoplasmic domain) antibodies (1/2000 in 5% milk TBST), as well as secondary α-mouse and α-rabbit IgG antibodies coupled to HRP (1/2000 in 5% milk TBST). […]
(In western blotting, separated proteins are transferred to a membrane and probed.)

The subject of the next assay is ADGRV1. The settings on record: cellular models, PDZ-PBM dependent; ref Hu et al., 2014; cited from earlier work. The source says: Cochlear hair cells are the primary receptors for the detection of sound-induced vibrations. […] The shape of the bundle is critical for the cohesive deflection of the stereocilia necessary for the cell function. Morphogenesis of the hair bundle is regulated during cochlear development, but the underlying signaling pathways remain elusive. The ankle link protein complex, transiently expressed at the base of the stereocilia, is the main candidate for regulating bundle morphogenesis, with pathogenic varia ... || PDZD7 and ADGRV1 are the main candidate proteins for regulating the signaling associated with the Usher2 complex. PDZD7 is primarily a scaffolding protein, with several protein-protein interaction domains (three PDZ domains and one HHD) likely recruiting several partners at the ankle links anchoring sites ([Du et al., 2018]).

Assay [1] concerns the target T1, PDZD7 PDZ tandem (P1P2 construct; A81 to G313) (mouse).
T1 sequence (E9Q9W7 81-313, looked up): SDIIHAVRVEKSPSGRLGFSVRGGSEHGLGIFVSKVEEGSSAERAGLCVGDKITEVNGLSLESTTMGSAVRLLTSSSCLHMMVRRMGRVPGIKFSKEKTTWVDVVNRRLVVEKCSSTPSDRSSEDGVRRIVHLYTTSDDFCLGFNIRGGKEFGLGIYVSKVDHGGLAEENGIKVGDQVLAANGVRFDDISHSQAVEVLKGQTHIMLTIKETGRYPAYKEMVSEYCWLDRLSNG
In words: other fluorescence titration; tryptophan fluorescence (excitation 295 nm) of P1P2 at 2 µM in Phosphate Buffer pH 6.6 (50 mM) on progressive addition of ADGRV1pbm peptide or the cytoplasmic domain; apparent Kd.

In assay [2] the target is PDZD7 N-terminus with PDZ1 and its extension (N-PDZ1ext construct; M1-E192) (mouse) (UniProt E9Q9W7). In words: NMR titration; chemical shift perturbations of PDZ1ext or N-PDZ1ext with the whole ADGRV1 cytoplasmic domain or the PBM peptide; apparent Kd, mean over at least ten shifting peaks; buffer not given for these titrations.
Assay [3] concerns the target T2, PDZD7 first PDZ domain with its C-terminal extension (PDZ1ext construct; A81 to E192) (mouse).
T2 sequence (E9Q9W7 81-192, looked up): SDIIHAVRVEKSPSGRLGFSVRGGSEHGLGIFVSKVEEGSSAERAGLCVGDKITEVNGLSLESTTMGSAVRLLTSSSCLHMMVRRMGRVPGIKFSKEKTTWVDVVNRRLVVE
Described as above.

In assay [4] the target is T3, PDZD7 second PDZ domain (PDZ2 construct; G206 to G292) (mouse, UniProt E9Q9W7-1 206-292).
T3 construct: PDZD7, mouse, long isoform (Uniprot E9Q9W7-1), residues 206-292; source: E. coli BL21 DE3, purified (GSTrap, on-column TEV cleavage, SEC); not shown: GST, N-terminal, cleaved
T3 sequence (looked up): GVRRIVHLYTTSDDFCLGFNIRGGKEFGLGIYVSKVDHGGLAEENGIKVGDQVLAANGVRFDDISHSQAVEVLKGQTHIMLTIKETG
The experiment in a line: MST; label-free; PDZ2 at 140 μM in MES pH6 (50 mM) mixed 1:1 with a serial dilution of ADGRV1pbm peptide; apparent Kd. As to conditions: both partners purified.

The target in assay [5] is T4, PDZD7 second PDZ domain with its C-terminal extension (PDZ2ext construct; G206 to G313) (mouse, UniProt E9Q9W7-1 206-313).
T4 construct: also called PDZ2ext WT; source: E. coli BL21 DE3, purified (GSTrap, on-column TEV cleavage, SEC); not shown: GST, N-terminal, cleaved
T4 sequence (looked up): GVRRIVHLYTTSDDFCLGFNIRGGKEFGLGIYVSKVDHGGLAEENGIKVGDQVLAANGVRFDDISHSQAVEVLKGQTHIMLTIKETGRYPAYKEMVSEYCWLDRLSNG
In words: other fluorescence titration; tryptophan fluorescence (excitation 295 nm) of PDZ2ext at 5 µM in Tris HCl pH 7.5 (50 mM) on progressive addition of ADGRV1pbm peptide; apparent Kd. The settings on record: both partners purified.

In assay [6] the target is PDZD7 PDZ1ext G103R (mouse). The experiment in a line: NMR titration; 1H-15N HSQC chemical shift perturbations of the labelled PDZ construct on addition of ADGRV1pbm peptide; Tris HCl pH 7.5 (50 mM), 25°C; apparent Kd, mean over at least 10 shifting peaks.
Assay [7] addresses T2, PDZD7 first PDZ domain with its C-terminal extension (PDZ1ext construct; A81 to E192) (mouse). The description is as above.
The target in assay [8] is PDZD7 PDZ tandem P1P2 G103R (mouse). The experiment in a line: other fluorescence titration; tryptophan fluorescence (excitation 295 nm) of P1P2 at 2 µM in Phosphate Buffer pH 6.6 (50 mM) on progressive addition of ADGRV1pbm peptide or the cytoplasmic domain; apparent Kd.
In assay [9] the target is T5, PDZD7 first PDZ domain (PDZ1 construct; A81 to G167) (mouse, Natural entry residue kept at 81: the paper prints A81 but the entry has Ser, so the Ala is probably a cloning junction or a misprint. The GST tag was removed by TEV; a short N-terminal scar is possib).
T5 chain: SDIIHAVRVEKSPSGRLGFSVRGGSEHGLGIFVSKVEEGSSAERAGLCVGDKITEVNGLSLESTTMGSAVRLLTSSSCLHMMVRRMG
In words: NMR titration; 1H-15N HSQC chemical shift perturbations of the labelled PDZ construct on addition of ADGRV1pbm peptide; Tris HCl pH 7.5 (50 mM), 25°C; apparent Kd, mean over at least 10 shifting peaks. As to conditions: both partners purified.

“Also recorded” adds a separate entry of the source.

With “protocadherin-15: partner of harmonin supramodule”, the “increased affinity of harmonin supramodule vs isolated PDZ” value in the assay with harmonin supramodule is reported as approximately 10 fold.

B1: WT PDZD7: full-length murine PDZD7 in fusion with N-terminal strep tag and C-terminal GFP (pull-down) (protein)
chain: MARGFTVGFDPLGLGELSSGSLSSVSSRGHLGSDSGSTATRYLLRKQQRLLNGPSRGIRASSPMGRVILINSPIEANSDESDIIHAVRVEKSPSGRLGFSVRGGSEHGLGIFVSKVEEGSSAERAGLCVGDKITEVNGLSLESTTMGSAVRLLTSSSCLHMMVRRMGRVPGIKFSKEKTTWVDVVNRRLVVEKCSSTPSDRSSEDGVRRIVHLYTTSDDFCLGFNIRGGKEFGLGIYVSKVDHGGLAEENGIKVGDQVLAANGVRFDDISHSQAVEVLKGQTHIMLTIKETGRYPAYKEMVSEYCWLDRLSNGVLQQLSPASESSSSVSSYASSAPCSSGSLPSDRMDVCLGPEEPTSHGPGWGRADTAMQTEPDLDSRVETWCSVRPTVILRDTAIRSDGPSSTRHLDSALSESPKTALLLALSRPRTPITRSQSHLTLWEEKKQRKKEKSGSSGEKGALQRSKTLMNLFFKGGRQGRPAGDGHREAWTLDSRSPTKVRPRLDLEKAGSVGPVQKFVTWRLRRDRERGRALLSARSGSPSGQAPTVNEQVQAWESRRPLIQDLARRLLTDDEVLAVTRHCSRYVHEGGVEDLVRPLLAILDRPTKLLLLRDIRSVVAPTDLGRFDSMVMPVELEAFEALKSRAVGPSALRPTRQDTPPKRHLITPVPDSRGGFYLLPVNSSEDEDGEIREKLGVLKVSLGASAPHHKGIPPLQDVPVDAFSLRRGACAPPPQPPPVAPRPPRPNWLLTEPLSREDTQQNQSQTPAQSCSRSRSRSRSRSHSRGQGKSPGRRRSPSPAPIATAATANGRYHRPRKARPLLPRLLDGQVAKVGARQGPLENGRIAEEAVGNVSTGALRTITLSKMKQSLGISISGGIESKVQPMVKIEKIFPGGAAFLCGDLQAGFELVAVDGESLEQVTHQRAVDTIRRAYRNKAREPMELVVRVPGPGLLPLASDLRVVKDQSLAPDCPSALGPVDDARILTQLPPPEARQLQQSLSSALKVPQSIPKLSPILKDPHDPS
modifications: left off: strep tag, N-terminal, kept | GFP, C-terminal, kept
Take B1: in the assay on ADGRV1 β subunit, the “binding of ADGRV1 β subunit (pull-down)” value was “a clear band is observed”. The “effect on ADGRV1 GPCR activity” value in the assay on ADGRV1 was “downregulates the GPCR activity and restores cAMP levels; also recorded: downregulates ADGRV1 GPCR activity”.

B2: ADGRV1 whole cytoplasmic domain (domain or fragment)
chain: HNQTCCPMKASYTVEMNGHPGPSTAFFTPGSGIPPAGEINKSTQNLINAMEEVPSDWERSSFQQTSQASPDLKTSPQNGASFPSSGGYGPGSLIADEESQEFDDLIFALKTGAGLSVSDNESGQGSQEGGTLTDSQIVELRRIPIADTHL
B2: the values for the Kd in assay [1], in assay [2] and in [3] were 8.1 µM, 241 µM and 41 µM, respectively.

B3: ADGRV1pbm peptide (last 13 residues of ADGRV1, with its PDZ binding motif) (peptide)
peptide: VELRRIPIADTHL
notes: ADGRV1, last 13 residues, free C-terminal carboxylate as printed (-COOH); The other ADGRV1 constructs are murine
For the molecule B3, the Kd in assay [4] was found to be 313 µM; in assay [5] it was 3.1 µM; in assay [6], 1190 µM; in [7] it was 47 µM; in assay [1], 1.6 µM; in [8] it was 1.9 µM. The Kd in [9] was determined as 1310 µM.

(Values after PMC9274004, “Deciphering the Molecular Interaction Between the Adhesion G Protein-Coupled Receptor ADGRV1 and its PDZ-Containing Regulator PDZD7” (Frontiers in Molecular Biosciences, 2022).)
